The target of the series is T1, MdNAC1 (Malus domestica? (apple), UniProt D9ZJ87 1-280).
T1 sequence: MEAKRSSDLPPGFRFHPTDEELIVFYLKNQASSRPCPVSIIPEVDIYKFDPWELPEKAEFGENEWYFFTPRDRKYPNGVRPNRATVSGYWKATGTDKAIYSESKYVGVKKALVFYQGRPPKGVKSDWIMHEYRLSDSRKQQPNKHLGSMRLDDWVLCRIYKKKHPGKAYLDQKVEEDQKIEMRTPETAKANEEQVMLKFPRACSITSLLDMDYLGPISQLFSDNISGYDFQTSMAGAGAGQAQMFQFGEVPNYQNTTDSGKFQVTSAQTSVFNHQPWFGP
As to the kind of experiment: EMSA; Chemiluminescent EMSA Kit (GS009, Beyotime); cold competitor 50x; buffer, salt, pH and temperature not stated. The settings on record: protein: recombinant; tags: GST (pGEX-6p-1); chain copies: 2; label: biotin; blunt. A general note: Mobility shift assays separate free from complexed probe on a gel.

B1: MdEXP-A1-P1 binding probe (dsDNA)
DNA 1: TACATGCAAAATAATTTACCTACGTAATAAATAATAAATATTGTT
DNA 2: AACAATATTTATTATTTATTACGTAGGTAAATTATTTTGCATGTA
B1: the binding result is recorded as “binds”.

B2: MdEXP-A1-P2 binding probe (dsDNA)
DNA 1: TAACAACAAAATGTGCCTAACGTATACATGCAAAATAATTTACCT
DNA 2: AGGTAAATTATTTTGCATGTATACGTTAGGCACATTTTGTTGTTA
Regarding B2, the binding result is listed as “binds”.
